Measured values as given in PMC10113545, “OsWRKY76 positively regulates drought stress via OsbHLH148-mediated jasmonate signaling in rice”.

B1: OsDREB1E probe (6-FAM) (dsDNA)
DNA 1: GCACGGGTAGTTTTGACCTATAGGAGTGTA
DNA 2: TACACTCCTATAGGTCAAAACTACCCGTGC
B2: OsDREB1E unlabeled competitor probe (dsDNA)
DNA 1: B1 DNA 1
DNA 2: B1 DNA 2

Legend:
GST-OsWRKY76 [1] = target: T1, GST-OsWRKY76 (Oryza sativa, UniProt Q6EPZ2 1-327); test: EMSA; EMSA as in Gao et al. 2019; buffer, salt, pH and temperature not stated; details: protein: recombinant; tags: N-terminal GST (pGEX-4T-3); label: 6-FAM 5' end (strand(s) not specified); blunt
T1 sequence: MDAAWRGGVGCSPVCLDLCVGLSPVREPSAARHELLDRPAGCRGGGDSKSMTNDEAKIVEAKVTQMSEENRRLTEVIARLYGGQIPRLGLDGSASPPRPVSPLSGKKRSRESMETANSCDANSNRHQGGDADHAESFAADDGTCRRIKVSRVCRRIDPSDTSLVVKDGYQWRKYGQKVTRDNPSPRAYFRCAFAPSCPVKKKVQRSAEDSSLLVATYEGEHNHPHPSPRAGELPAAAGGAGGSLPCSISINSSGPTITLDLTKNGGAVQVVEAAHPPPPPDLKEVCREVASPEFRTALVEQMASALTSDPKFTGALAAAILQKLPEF

GST-OsWRKY76 [2] = target: T1, GST-OsWRKY76; test: competition; 10x and 50x molar excess of unlabeled probe reduced the N1 shift; EMSA as in Gao et al. 2019; buffer, salt, pH and temperature not stated; details: protein: recombinant; tags: N-terminal GST (pGEX-4T-3); blunt

| Binder | binding result (GST-OsWRKY76 [1]) | binding result (GST-OsWRKY76 [2]) |
| --- | --- | --- |
| B1 | binds | – |
| B2 | – | binds |
